Experimental data reported in patent US20160074468A1 (GENUS ONCOLOGY, published 2016).
Each block holds one binder with its values, some of them ahead of it.

How the values were obtained:
[1] = biological target: T1, HER2/ERBB2 receptor tyrosine kinase (human, UniProt P04626 23-1255); assay: co-immunoprecipitation: anti-MUC1-C precipitates of SKBR3 and BT474 lysates, immunoblot (FIG. 1B)
T1 construct: whole, on cells; Endogenous HER2 in cell lysates, detected by anti-HER2 immunoblot of precipitates or GST adsorbates; also called Neu; CD340
Source text: (FIG. 1C). […] Lysates were immunoblotted with the indicated antibodies. […] IP, immunoprecipitated.

[2] = biological target: T1, HER2/ERBB2 receptor tyrosine kinase; assay: GST pull-down from SKBR3 cell lysates, anti-HER2 immunoblot (FIG. 2A, left)
Experimental: Lysates from SKBR3 (left) and BT474 (right) cells were incubated with the indicated GST or GST-fusion proteins. The adsorbates were immunoblotted (IB) with anti-HER2. Input of the GST proteins was assessed by Coomassie blue staining. […] Lysates were immunoblotted with the indicated antibodies. […] Lysates were immunoblotted with the indicated antibodies. […] Cell number (mean±s.e. of three determinations) was determined by Trypan blue staining. IP, immunoprecipitated.

binding result [1]: binds
B1: MUC1 C-terminal subunit (MUC1-C) (other)
chain: GSVVVQLTLAFREGTINVHDVETQFNQYKTEAASRYNLTISDVSVSDVPFPFSAQSGAGVPGWGIALLVLVCVLVALAIVYLIALAVCQCRRKNYGQLDIFPARDTYHPMSEYPTYHTHGRYVPPSSTDRSPYEKVSAGNGGSSLSYTNPAVAATSANL
notes: Endogenous MUC1-C in lysates of SKBR3, BT474, SKBR3R and BT474R human breast cancer cells, precipitated with anti-MUC1-C

binding result [2]: no binding
B2: GST-MUC1-CD in which the CQC motif had been mutated to AQA (other, not shown: a dimerising Fc or GST; large carriers; small tags and cut ends)
chain: AQARRKNYGQLDIFPARDTYHPMSEYPTYHTHGRYVPPSSTDRSPYEKVSAGNGGSSLSYTNPAVAATSANL
notes: also called MUC1-CD(AQA)
